Results from US20220324974A1 (SORRENTO THERAPEUTICS, published 2022).
Each block holds one binder with its values, some of them ahead of it.

Columns and labels:
[1] = biological target: T1, CD38 expressed on human tumor cell lines (RPMI8226, MM1.R and other CD38(+) lines) (human, UniProt P28907 1-300); assay: cell-based or functional assay
[2] = biological target: T1, CD38 expressed on human tumor cell …; assay: cell-based or functional assay; remark: listed apart in the source
[3] = biological target: T2, CD3 antigen on primary human T cells (human, UniProt P07766 23-207; P04234 22-171; P09693 23-182); assay: flow cytometry on CD38-minus primary human T cells
T2 construct: CD3 is a multi-chain complex; also called CD3-expressing T cells; CD3-expressing CD38-minus T cells

[4] = biological target: T2, CD3 antigen on primary human T cells; assay: flow cytometry on freshly isolated primary human T cells, anti-human Fc-APC secondary, GeoMean RL1-H of singlets
[5] = biological target: T3, BCMA target antigen (Acro Biosystems catalog # BCA-H522g) (UniProt Q02223 1-54); assay: SPR Biacore, antibody captured by anti-Fc, antigen as analyte, 1:1 model
T3 construct: range 1-54; Bought protein; also called BMCA target antigen; BCMA antigen
T3 sequence (looked up): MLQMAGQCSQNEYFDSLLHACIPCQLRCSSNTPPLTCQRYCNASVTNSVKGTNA

[6] = biological target: T4, BCMA expressed on MM1.R myeloma cells (UniProt Q02223 1-184); assay: cell-based or functional assay
T4 sequence (looked up): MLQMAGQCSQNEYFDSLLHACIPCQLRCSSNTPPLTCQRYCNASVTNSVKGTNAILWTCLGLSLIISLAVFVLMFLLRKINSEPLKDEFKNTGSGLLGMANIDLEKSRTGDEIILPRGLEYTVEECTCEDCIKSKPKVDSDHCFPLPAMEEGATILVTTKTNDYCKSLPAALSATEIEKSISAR

[7] = biological target: T2, CD3 antigen on primary human T cells; assay: flow cytometry on freshly isolated primary human T cells, anti-human Fc-APC secondary, GeoMean RL1-H of singlets; remark: listed apart in the source
[8] = biological target: T2, CD3 antigen on primary human T cells; assay: flow cytometry on CD38-minus primary human T cells, anti-human Fc-APC secondary, GeoMean RL1-H of singlets

fold reduction of binding to CD3 [3]: > 100 fold
B2: Kv6.1 (7GS) CD38/CD3 two-chain in-tandem bispecific antibody with non-cleavable GS second linker (bispecific antibody)
heavy: QVQLVESGGGLVKPGGSLRLSCAASGFTFSDDYMSWIRQAPGKGLEWVASVSNGRPTTYYADSVRGRFTISRDNAKNSLYLQMNSLRAEDTAVYYCAREGWSGEFTDWGQGTLVTVSSASTKGPSVFPLAPSSKSTSGGTAALGCLVKDYFPEPVTVSWNSGALTSGVHTFPAVLQSSGLYSLSSVVTVPSSSLGTQTYICNVNHKPSNTKVDKRVEPKSCGGSGSGSGGSSGGGSGGGGSQVQLVQSGAEVKKPGASVKVSCKASGYTFISYTMHWVRQAPGQGLEWMGYINPRSGYTHYNQKLKDKATLTADKSASTAYMELSSLRSEDTAVYYCARSAYYDYDGFAYWGQGTLVTVSSASTKGPSVFPLAPSSKSTSGGTAALGCLVKDYFPEPVTVSWNSGALTSGVHTFPAVLQSSGLYSLSSVVTVPSSSLGTQTYICNVNHKPSNTKVDKRVEPKSSDKTHTCPPCPAPEAAGGPSVFLFPPKPKDTLMISRTPEVTCVVVDVSHEDPEVKFNWYVDGVEVHNAKTKPREEQYNSTYRVVSVLTVLHQDWLNGKEYKCKVSNKALPAPIEKTISKAKGQPREPQVYTLPPSREEMTKNQVSLSCAVKGFYPSDIAVEWESNGQPENNYKTTPPVLDSDGSFFLVSKLTVDKSRWQQGNVFSCSVMHEALHNHYTQKSLSLSPGK
light: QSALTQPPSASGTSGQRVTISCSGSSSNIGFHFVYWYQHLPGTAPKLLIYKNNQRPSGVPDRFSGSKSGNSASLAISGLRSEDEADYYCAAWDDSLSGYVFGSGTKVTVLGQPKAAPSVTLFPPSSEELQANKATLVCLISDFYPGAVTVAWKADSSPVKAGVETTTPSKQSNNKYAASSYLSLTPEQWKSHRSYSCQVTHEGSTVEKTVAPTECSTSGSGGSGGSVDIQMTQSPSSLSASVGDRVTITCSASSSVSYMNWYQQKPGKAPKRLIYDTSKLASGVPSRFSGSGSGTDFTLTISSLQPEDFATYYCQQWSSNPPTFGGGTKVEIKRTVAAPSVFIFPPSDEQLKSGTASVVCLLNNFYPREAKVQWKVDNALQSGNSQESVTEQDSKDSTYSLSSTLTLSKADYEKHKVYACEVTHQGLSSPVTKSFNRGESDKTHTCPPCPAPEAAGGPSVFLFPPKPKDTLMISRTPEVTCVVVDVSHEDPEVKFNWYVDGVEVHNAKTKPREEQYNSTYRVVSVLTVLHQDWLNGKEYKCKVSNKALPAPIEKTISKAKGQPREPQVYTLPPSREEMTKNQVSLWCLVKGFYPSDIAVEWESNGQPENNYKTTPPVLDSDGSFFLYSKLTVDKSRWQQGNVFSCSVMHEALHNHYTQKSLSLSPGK
notes: also called control non-cleavable bispecific antibody having an in-tandem structure (Kv6.1)

EC50 (read off the curve) [4]: ~2 µg/mL
Kd [5]: 47.7 nM
koff [5]: 0.0364 s⁻¹
kon [5]: 762000 M⁻¹ s⁻¹
EC50 (read off the curve) [7]: ~2 µg/mL
B3: Kv4.33 BCMA/CD3 three-chain non-tandem bispecific antibody (bispecific antibody)
chain 1: EVQLVESGGGLVKPGGSLRLSCAASGFTSSTAWMSWVRQAPGKGLEWVGRIKSKSDGGTTDYAAPVKGRFTISRDDSKNTLFLQMNSLKTEDTAVYYCAKGGGTYGYWGQGTTVTVSSASTKGPSVFPLAPSSKSTSGGTAALGCLVKDYFPEPVTVSWNSGALTSGVHTFPAVLQSSGLYSLSSVVTVPSSSLGTQTYICNVNHKPSNTKVDKRVEPKSSDKTHTCPPCPAPEAAGGPSVFLFPPKPKDTLMISRTPEVTCVVVDVSHEDPEVKFNWYVDGVEVHNAKTKPREEQYNSTYRVVSVLTVLHQDWLNGKEYKCKVSNKALPAPIEKTISKAKGQPREPQVYTLPPSREEMTKNQVSLSCAVKGFYPSDIAVEWESNGQPENNYKTTPPVLDSDGSFFLVSKLTVDKSRWQQGNVFSCSVMHEALHNHYTQKSLSLSPGKGSGGSSGGGSGGGGSQVQLVQSGAEVKKPGASVKVSCKASGYTFISYTMHWVRQAPGQGLEWMGYINPRSGYTHYNQKLKDKATLTADKSASTAYMELSSLRSEDTAVYYCARSAYYDYDGFAYWGQGTLVTVSSASTKGPSVFPLAPSSKSTSGGTAALGCLVKDYFPEPVTVSWNSGALTSGVHTFPAVLQSSGLYSLSSVVTVPSSSLGTQTYICNVNHKPSNTKVDKRVEPKSC
chain 2: SYVLTQPASVSGSPGQSVTISCTGTSSAHGGHYYVSWYQQHPGKAPKLMIYDVSNRPSGVSNRFSGSKSGNTASLTISGLQAEDEADYYCGSYTSSGSYVFGTGTKLTVLGQPKAAPSVTLFPPSSEELQANKATLVCLISDFYPGAVTVAWKADSSPVKAGVETTTPSKQSNNKYAASSYLSLTPEQWKSHRSYSCQVTHEGSTVEKTVAPTESSGGSGGDKTHTCPPCPAPEAAGGPSVFLFPPKPKDTLMISRTPEVTCVVVDVSHEDPEVKFNWYVDGVEVHNAKTKPREEQYNSTYRVVSVLTVLHQDWLNGKEYKCKVSNKALPAPIEKTISKAKGQPREPQVYTLPPSREEMTKNQVSLWCLVKGFYPSDIAVEWESNGQPENNYKTTPPVLDSDGSFFLYSKLTVDKSRWQQGNVFSCSVMHEALHNHYTQKSLSLSPGK
chain 3: DIQMTQSPSSLSASVGDRVTITCSASSSVSYMNWYQQKPGKAPKRLIYDTSKLASGVPSRFSGSGSGTDFTLTISSLQPEDFATYYCQQWSSNPPTFGGGTKVEIKRTVAAPSVFIFPPSDEQLKSGTASVVCLLNNFYPREAKVQWKVDNALQSGNSQESVTEQDSKDSTYSLSSTLTLSKADYEKHKVYACEVTHQGLSSPVTKSFNRGEC
notes: also called Kv4.33 (3XGS) BCMA/CD3
IC50 pM, TAA-dependent cytotoxicity (MM1.R target cells by the text) [6]: 134 pM

fold reduction of binding to CD3 [3]: > 1000 fold
B5: Kv6.2 (7GS) CD38/CD3 two-chain non-tandem bispecific antibody with non-cleavable GS second linker (bispecific antibody)
heavy: QVQLVESGGGLVKPGGSLRLSCAASGFTFSDDYMSWIRQAPGKGLEWVASVSNGRPTTYYADSVRGRFTISRDNAKNSLYLQMNSLRAEDTAVYYCAREGWSGEFTDWGQGTLVTVSSASTKGPSVFPLAPSSKSTSGGTAALGCLVKDYFPEPVTVSWNSGALTSGVHTFPAVLQSSGLYSLSSVVTVPSSSLGTQTYICNVNHKPSNTKVDKRVEPKSSDKTHTCPPCPAPEAAGGPSVFLFPPKPKDTLMISRTPEVTCVVVDVSHEDPEVKFNWYVDGVEVHNAKTKPREEQYNSTYRVVSVLTVLHQDWLNGKEYKCKVSNKALPAPIEKTISKAKGQPREPQVYTLPPSREEMTKNQVSLSCAVKGFYPSDIAVEWESNGQPENNYKTTPPVLDSDGSFFLVSKLTVDKSRWQQGNVFSCSVMHEALHNHYTQKSLSLSPGKGSGGSSGGGSGGGGSQVQLVQSGAEVKKPGASVKVSCKASGYTFISYTMHWVRQAPGQGLEWMGYINPRSGYTHYNQKLKDKATLTADKSASTAYMELSSLRSEDTAVYYCARSAYYDYDGFAYWGQGTLVTVSSASTKGPSVFPLAPSSKSTSGGTAALGCLVKDYFPEPVTVSWNSGALTSGVHTFPAVLQSSGLYSLSSVVTVPSSSLGTQTYICNVNHKPSNTKVDKRVEPKSC
light: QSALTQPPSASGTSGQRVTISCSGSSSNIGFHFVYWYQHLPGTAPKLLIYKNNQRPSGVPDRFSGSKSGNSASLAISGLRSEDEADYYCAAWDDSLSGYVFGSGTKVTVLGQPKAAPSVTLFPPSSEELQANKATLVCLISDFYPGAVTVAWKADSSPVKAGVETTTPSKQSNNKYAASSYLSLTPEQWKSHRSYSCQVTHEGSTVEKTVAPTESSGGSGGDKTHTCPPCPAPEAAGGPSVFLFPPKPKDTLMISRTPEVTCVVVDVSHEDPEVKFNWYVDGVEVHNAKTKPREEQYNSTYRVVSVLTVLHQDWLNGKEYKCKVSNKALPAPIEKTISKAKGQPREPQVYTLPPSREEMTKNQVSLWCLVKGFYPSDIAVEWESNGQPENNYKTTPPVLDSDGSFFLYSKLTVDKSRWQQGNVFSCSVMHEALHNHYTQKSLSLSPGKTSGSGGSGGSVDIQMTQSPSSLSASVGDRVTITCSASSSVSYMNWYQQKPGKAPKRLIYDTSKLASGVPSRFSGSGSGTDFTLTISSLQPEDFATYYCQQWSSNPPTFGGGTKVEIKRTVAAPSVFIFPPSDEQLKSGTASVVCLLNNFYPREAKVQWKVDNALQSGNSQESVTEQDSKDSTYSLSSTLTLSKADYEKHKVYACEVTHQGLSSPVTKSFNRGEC
notes: also called control non-cleavable bispecific antibody having a non-tandem structure (Kv6.2)

Continued, binder first:

B1: Kv5.1 CD38/CD3 three-chain in-tandem bispecific antibody (bispecific antibody)
chain 1: B2 heavy
chain 2: not shown
chain 3: DIQMTQSPSSLSASVGDRVTITCSASSSVSYMNWYQQKPGKAPKRLIYDTSKLASGVPSRFSGSGSGTDFTLTISSLQPEDFATYYCQQWSSNPPTFGGGTKVEIKRTVAAPSVFIFPPSDEQLKSGTASVVCLLNNFYPREAKVQWKVDNALQSGNSQESVTEQDSKDSTYSLSSTLTLSKADYEKHKVYACEVTHQGLSSPVTKSFNRGESGGSGGDKTHTCPPCPAPEAAGGPSVFLFPPKPKDTLMISRTPEVTCVVVDVSHEDPEVKFNWYVDGVEVHNAKTKPREEQYNSTYRVVSVLTVLHQDWLNGKEYKCKVSNKALPAPIEKTISKAKGQPREPQVYTLPPSREEMTKNQVSLWCLVKGFYPSDIAVEWESNGQPENNYKTTPPVLDSDGSFFLYSKLTVDKSRWQQGNVFSCSVMHEALHNHYTQKSLSLSPGK
IC50 pM, TAA-dependent cytotoxicity (MM1.R target cells by the text) [1]: 3 pM
IC50 pM, TAA-dependent cytotoxicity towards RPMI8226 cells [2]: 4.2 pM

B4: Kv4.33 (4XGS) CD38/CD3 three-chain non-tandem bispecific antibody (bispecific antibody)
heavy: QVQLVESGGGLVKPGGSLRLSCAASGFTFSDDYMSWIRQAPGKGLEWVASVSNGRPTTYYADSVRGRFTISRDNAKNSLYLQMNSLRAEDTAVYYCAREGWSGEFTDWGQGTLVTVSSASTKGPSVFPLAPSSKSTSGGTAALGCLVKDYFPEPVTVSWNSGALTSGVHTFPAVLQSSGLYSLSSVVTVPSSSLGTQTYICNVNHKPSNTKVDKRVEPKSSDKTHTCPPCPAPEAAGGPSVFLFPPKPKDTLMISRTPEVTCVVVDVSHEDPEVKFNWYVDGVEVHNAKTKPREEQYNSTYRVVSVLTVLHQDWLNGKEYKCKVSNKALPAPIEKTISKAKGQPREPQVYTLPPSREEMTKNQVSLSCAVKGFYPSDIAVEWESNGQPENNYKTTPPVLDSDGSFFLVSKLTVDKSRWQQGNVFSCSVMHEALHNHYTQKSLSLSPGKGGSGSGSGGSSGGGSGGGGSQVQLVQSGAEVKKPGASVKVSCKASGYTFISYTMHWVRQAPGQGLEWMGYINPRSGYTHYNQKLKDKATLTADKSASTAYMELSSLRSEDTAVYYCARSAYYDYDGFAYWGQGTLVTVSSASTKGPSVFPLAPSSKSTSGGTAALGCLVKDYFPEPVTVSWNSGALTSGVHTFPAVLQSSGLYSLSSVVTVPSSSLGTQTYICNVNHKPSNTKVDKRVEPKSC
light 1: not shown
light 2: B3 chain 3
EC50 (read off the curve) [8]: ~2 µg/mL
